Laboratory results published in patent US20240190966A1 (published 2024).

Molecular target: T1, human LY6G6D-Fc (human, UniProt O95868 20-104)
T1 construct: also called huLY6G6D; hu Ly6G6D; not shown: linker and Fc
T1 sequence: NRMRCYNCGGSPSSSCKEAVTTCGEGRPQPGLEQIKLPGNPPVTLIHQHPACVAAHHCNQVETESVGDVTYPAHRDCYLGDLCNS
Assay: BIAcore SPR; chimeric Fab; Ly6G6D-Fc captured on Protein A chip, 37 C (FIG. 34C)
Protocol: FIG. 34C is a set of graphs showing binding of Fab variants of rabbit 20A12, rabbit 20A12 comprising […] and C50A (IA) mutations, and the polished humanized 20A12 having a QNT amino acid substitution mutations at the glycosylation site of FIG. 34B to LY6G6D, as measured using a BIAcore assay. Ly6G6D-Fc was captured on a Protein A chip, and the Fab was flowed through at 37° C..

B1: rb20A12.IA (C35I-C50A) chimeric Fab (Fab, V domains shown)
VH: QQQLEESGGDLVKPGASLTLTCTASGFDFVNNAMIWVRQAPGKGLEWIAALSFADNTAYYATWASGRFTISKISSTTVTLRMTSLTGADTATYFCMRGDLWGPGTLVTVSS
VL: DIVMTQTPSSVSAAVGGTVTINCQASESITRYLNWYQQKPGQPPKLLIYDASKLPSGVPSRFKGSGSGTQFTLTTSDLECADAATYYCQSTSFRGRSYNNTFGGGTEVVVK
modifications: CDR-L3 NNT site is N-glycosylated.
notes: also called rabbit 20A12 comprising C35I and C50A (IA) mutations
B1 gave a Kd of 0.86 nM.
